Data as given in patent publication US20220135638A1 (Takeda / Millennium, published 2022).
Numbered stars: 1 amine (or outer) side, 2 acyl side, 3 side chain; on linkers, the order of the positions; unused ones are H or OH. Square brackets hold non-standard residues; d marks the D form. Primed or numbered codes have the meaning given here. Side chains are listed from the residue outwards. Ends that are not written are not given here. * marks the point of attachment. C20 diacid = O=C(O)CCCCCCCCCCCCCCCCCCC(=O)*; C16 diacid = O=C(O)CCCCCCCCCCCCCCC(=O)*; γGlu = O=C(O)[C@H](CCC(=O)[*:2])N[*:1]; Iva = CC[C@](C)(N)C(=O)O; PEG3′ = not defined here; Aib = CC(C)(N)C(=O)O

T1: full-length human GLP-1R (GenBank NM_002062) with an N-terminal FLAG tag on HEK-293T cells (human), P43220
T1 chain: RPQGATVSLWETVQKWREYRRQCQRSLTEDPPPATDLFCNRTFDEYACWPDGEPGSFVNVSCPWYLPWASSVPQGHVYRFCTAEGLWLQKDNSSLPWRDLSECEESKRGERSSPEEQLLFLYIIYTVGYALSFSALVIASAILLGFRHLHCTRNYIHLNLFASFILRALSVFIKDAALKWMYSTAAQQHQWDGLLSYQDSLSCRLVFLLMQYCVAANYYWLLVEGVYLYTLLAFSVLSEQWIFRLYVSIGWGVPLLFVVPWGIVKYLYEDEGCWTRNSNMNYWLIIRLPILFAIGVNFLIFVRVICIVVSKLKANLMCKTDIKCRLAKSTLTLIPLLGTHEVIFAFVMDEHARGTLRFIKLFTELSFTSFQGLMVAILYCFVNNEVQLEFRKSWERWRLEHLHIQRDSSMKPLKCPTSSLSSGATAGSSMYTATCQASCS

T2: full-length human GIPR (GenBank NM_000164) with an N-terminal FLAG tag on HEK-293T cells (human), P48546
T2 chain: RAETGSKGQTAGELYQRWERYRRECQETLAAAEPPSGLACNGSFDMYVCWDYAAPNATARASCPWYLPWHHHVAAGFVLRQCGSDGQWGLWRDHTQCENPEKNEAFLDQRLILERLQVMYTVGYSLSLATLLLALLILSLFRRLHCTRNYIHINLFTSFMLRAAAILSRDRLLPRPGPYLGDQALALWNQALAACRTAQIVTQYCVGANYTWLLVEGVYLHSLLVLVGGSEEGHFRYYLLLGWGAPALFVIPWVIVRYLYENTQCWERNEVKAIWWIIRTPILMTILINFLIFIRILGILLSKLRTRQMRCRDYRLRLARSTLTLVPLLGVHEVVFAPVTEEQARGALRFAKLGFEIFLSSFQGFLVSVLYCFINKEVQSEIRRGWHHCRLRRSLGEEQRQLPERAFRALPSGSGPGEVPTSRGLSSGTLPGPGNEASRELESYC

B1: Compound No. 500 (peptide)
peptide: Y[Aib]EGTFISDYSIALDR[Aib]HQ[Aib]NFVNW[Iva]LAQRPSSGAK([PEG3′-PEG3′-γGlu-C16 diacid])PPS
modifications: ends and bridges not checked
B2: Compound No. 486 (peptide)
peptide: Y[Aib]EGTFISDYSIALDR[Aib]HQ[Aib]NFVNW[Iva]LAQRK([PEG3′-PEG3′-γGlu-Ida])SSGAPPPS
modifications: ends and bridges not checked
B3: Compound No. 491 (peptide)
peptide: Y[Aib]EGTFISDYSIALDR[Aib]HQ[Aib]NFVNW[Iva]LAQRPSK([PEG3′-PEG3′-γGlu-C16 diacid])GAPPPS
modifications: ends and bridges not checked
B4: Compound No. 479 (peptide)
peptide: Y[Aib]EGTFISDYSIALDR[Aib]HQ[Aib]NFVNW[Iva]LAQRPSSGAPPPK([PEG3′-PEG3′-γGlu-C16 diacid])
modifications: ends and bridges not checked
B5: Compound No. 493 (peptide)
peptide: Y[Aib]EGTFISDYSIALDR[Aib]HQ[Aib]NFVNW[Iva]LAQRPSK([PEG3′-PEG3′-γGlu-C20 diacid])GAPPPS
modifications: ends and bridges not checked
B6: Compound No. 478 (peptide)
peptide: Y[Aib]EGTFISDYSIALDR[Aib]HQ[Aib]NFVNW[Iva]LAQRPSSGAPPK([PEG3′-PEG3′-γGlu-C20 diacid])S
modifications: ends and bridges not checked
B7: Compound No. 487 (peptide)
peptide: Y[Aib]EGTFISDYSIALDR[Aib]HQ[Aib]NFVNW[Iva]LAQRK([PEG3′-PEG3′-γGlu-C20 diacid])SSGAPPPS
modifications: ends and bridges not checked
B8: Compound No. 470 (peptide)
peptide: Y[Aib]EGTFISDYSIALDR[Aib]HQ[Aib]NFVNW[Iva]LAQRKSSGAPPPS
modifications: not fully specified (residue 31); ends and bridges not checked
B9: Compound No. 469 (peptide)
peptide: Y[Aib]EGTFISDYSIALDR[Aib]HQ[Aib]NFVNW[Iva]LAQRKSSGAPPPS
modifications: not fully specified (residue 31); ends and bridges not checked
B10: Compound No. 504 (peptide)
peptide: Y[Aib]EGTFISDYSIALDR[Aib]HQ[Aib]NFVNW[Iva]LAQRPSSGAPK([PEG3′-PEG3′-γGlu-Ida])PS
modifications: ends and bridges not checked
B11: Compound No. 476 (peptide)
peptide: Y[Aib]EGTFISDYSIALDR[Aib]HQ[Aib]NFVNW[Iva]LAQRPSSGAPPK([PEG3′-PEG3′-γGlu-C16 diacid])S
modifications: ends and bridges not checked
B12: Compound No. 497 (peptide)
peptide: Y[Aib]EGTFISDYSIALDR[Aib]HQ[Aib]NFVNW[Iva]LAQRPSSGK([PEG3′-PEG3′-γGlu-C16 diacid])PPPS
modifications: ends and bridges not checked
B13: Compound No. 481 (peptide)
peptide: Y[Aib]EGTFISDYSIALDR[Aib]HQ[Aib]NFVNW[Iva]LAQRPSSGAPPPK([PEG3′-PEG3′-γGlu-C20 diacid])
modifications: ends and bridges not checked
B14: Compound No. 499 (peptide)
peptide: Y[Aib]EGTFISDYSIALDR[Aib]HQ[Aib]NFVNW[Iva]LAQRPSSGK([PEG3′-PEG3′-γGlu-C20 diacid])PPPS
modifications: ends and bridges not checked
B15: Compound No. 494 (peptide)
peptide: Y[Aib]EGTFISDYSIALDR[Aib]HQ[Aib]NFVNW[Iva]LAQRPSSK([PEG3′-PEG3′-γGlu-C16 diacid])APPPS
modifications: ends and bridges not checked
B16: Compound No. 492 (peptide)
peptide: Y[Aib]EGTFISDYSIALDR[Aib]HQ[Aib]NFVNW[Iva]LAQRPSK([PEG3′-PEG3′-γGlu-Ida])GAPPPS
modifications: ends and bridges not checked
B17: Compound No. 498 (peptide)
peptide: Y[Aib]EGTFISDYSIALDR[Aib]HQ[Aib]NFVNW[Iva]LAQRPSSGK([PEG3′-PEG3′-γGlu-Ida])PPPS
modifications: ends and bridges not checked
B18: Compound No. 496 (peptide)
peptide: Y[Aib]EGTFISDYSIALDR[Aib]HQ[Aib]NFVNW[Iva]LAQRPSSK([PEG3′-PEG3′-γGlu-C20 diacid])APPPS
modifications: ends and bridges not checked
B19: Compound No. 490 (peptide)
peptide: Y[Aib]EGTFISDYSIALDR[Aib]HQ[Aib]NFVNW[Iva]LAQRPK([PEG3′-PEG3′-γGlu-C20 diacid])SGAPPPS
modifications: ends and bridges not checked
B20: Compound No. 477 (peptide)
peptide: Y[Aib]EGTFISDYSIALDR[Aib]HQ[Aib]NFVNW[Iva]LAQRPSSGAPPK([PEG3′-PEG3′-γGlu-Ida])S
modifications: ends and bridges not checked
B21: Compound No. 502 (peptide)
peptide: Y[Aib]EGTFISDYSIALDR[Aib]HQ[Aib]NFVNW[Iva]LAQRPSSGAK([PEG3′-PEG3′-γGlu-C20 diacid])PPS
modifications: ends and bridges not checked
B22: Compound No. 495 (peptide)
peptide: Y[Aib]EGTFISDYSIALDR[Aib]HQ[Aib]NFVNW[Iva]LAQRPSSK([PEG3′-PEG3′-γGlu-Ida])APPPS
modifications: ends and bridges not checked
B23: Compound No. 480 (peptide)
peptide: Y[Aib]EGTFISDYSIALDR[Aib]HQ[Aib]NFVNW[Iva]LAQRPSSGAPPPK([PEG3′-PEG3′-γGlu-Ida])
modifications: ends and bridges not checked
B24: Compound No. 489 (peptide)
peptide: Y[Aib]EGTFISDYSIALDR[Aib]HQ[Aib]NFVNW[Iva]LAQRPK([PEG3′-PEG3′-γGlu-Ida])SGAPPPS
modifications: ends and bridges not checked
B25: Compound No. 485 (peptide)
peptide: Y[Aib]EGTFISDYSIALDR[Aib]HQ[Aib]NFVNW[Iva]LAQRK([PEG3′-PEG3′-γGlu-C16 diacid])SSGAPPPS
modifications: ends and bridges not checked
B26: Compound No. 503 (peptide)
peptide: Y[Aib]EGTFISDYSIALDR[Aib]HQ[Aib]NFVNW[Iva]LAQRPSSGAPK([PEG3′-PEG3′-γGlu-C16 diacid])PS
modifications: ends and bridges not checked
B27: Compound No. 488 (peptide)
peptide: Y[Aib]EGTFISDYSIALDR[Aib]HQ[Aib]NFVNW[Iva]LAQRPK([PEG3′-PEG3′-γGlu-C16 diacid])SGAPPPS
modifications: ends and bridges not checked
B28: Compound No. 501 (peptide)
peptide: Y[Aib]EGTFISDYSIALDR[Aib]HQ[Aib]NFVNW[Iva]LAQRPSSGAK([PEG3′-PEG3′-γGlu-Ida])PPS
modifications: ends and bridges not checked

Tests used:
[1] = target: T1, full-length human GLP-1R (GenBank …); test: cell-based or functional assay
[2] = target: T2, full-length human GIPR (GenBank …); test: cell-based or functional assay

| Binder | GLP EC50 [1] [nM] | GIP EC50(pM) [2] [pM] |
| --- | --- | --- |
| B1 | > 1000 | 0.59 |
| B2 | > 1000 | 0.7 |
| B3 | > 1000 | 0.7 |
| B4 | > 1000 | 0.42 |
| B5 | > 1000 | 1.22 |
| B6 | > 1000 | 1.36 |
| B7 | > 1000 | 1.38 |
| B8 | > 1000 | 1.12 |
| B9 | > 1000 | 0.62 |
| B10 | > 1000 | 1.08 |
| B11 | > 1000 | 0.74 |
| B12 | > 1000 | 0.4 |
| B13 | > 1000 | 0.61 |
| B14 | > 1000 | 1.17 |
| B15 | > 1000 | 0.5 |
| B16 | > 1000 | 1.22 |
| B17 | > 1000 | 0.6 |
| B18 | > 1000 | 1.09 |
| B19 | > 1000 | 1.88 |
| B20 | > 1000 | 0.64 |
| B21 | > 1000 | 1.78 |
| B22 | > 1000 | 0.86 |
| B23 | > 1000 | 0.5 |
| B24 | > 1000 | 0.96 |
| B25 | > 1000 | 0.28 |
| B26 | > 1000 | 0.49 |
| B27 | > 1000 | 0.75 |
| B28 | > 1000 | 0.92 |
